The source of these data is patent US20150232507A1 (ERA BIOTECH S A, published 2015).

Positions count from the first letter of the chain named. Names may count otherwise.

What all share (test): cell-based or functional assay
Test [1] concerns the target T1, G1^C: Gp41.1^C-[C-extein]linker-Trx-EFRSHHHHHH fusion protein.
T1 chain: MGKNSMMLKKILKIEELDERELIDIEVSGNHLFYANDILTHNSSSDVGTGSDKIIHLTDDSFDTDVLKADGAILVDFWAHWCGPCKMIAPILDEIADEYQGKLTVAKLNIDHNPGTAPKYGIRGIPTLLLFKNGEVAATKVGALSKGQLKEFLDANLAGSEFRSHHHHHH

The target of test [2] is T1, G1^C: ….
For test [3], the target named is T1, G1^C: ….
The target in test [4] is T2, I1^C: IMPDH1^C-[C-extein]linker-Trx-EFRSHHHHHH fusion protein.
T2 chain: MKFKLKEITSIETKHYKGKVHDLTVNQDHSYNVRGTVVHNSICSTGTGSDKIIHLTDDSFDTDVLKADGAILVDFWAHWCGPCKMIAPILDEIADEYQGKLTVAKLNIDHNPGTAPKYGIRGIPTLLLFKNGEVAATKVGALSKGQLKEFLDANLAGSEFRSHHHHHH

The target in test [5] is T2, I1^C: ….
Test [6] addresses T2, I1^C: ….
For test [7], the target named is T3, N1^C: NrdJ1^C-[C-extein]linker-Trx-EFRSHHHHHH fusion protein.
T3 chain: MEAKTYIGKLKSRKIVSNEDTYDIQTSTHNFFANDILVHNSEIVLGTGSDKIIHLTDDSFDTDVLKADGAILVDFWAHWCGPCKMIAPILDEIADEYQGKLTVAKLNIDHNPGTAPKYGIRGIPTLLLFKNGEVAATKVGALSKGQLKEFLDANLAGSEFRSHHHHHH

Test [8] deals with T3, N1^C: ….
For test [9], the target named is T3, N1^C: ….
Test [10] addresses T4, G8^C: Gp41.8^C-[C-extein]linker-Trx-EFRSHHHHHH fusion protein.
T4 chain: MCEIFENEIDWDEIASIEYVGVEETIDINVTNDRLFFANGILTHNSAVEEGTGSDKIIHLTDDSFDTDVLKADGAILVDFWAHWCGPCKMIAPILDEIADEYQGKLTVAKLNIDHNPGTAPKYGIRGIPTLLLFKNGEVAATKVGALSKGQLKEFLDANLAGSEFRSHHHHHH

Test [11] concerns the target T4, G8^C: ….
Test [12] concerns the target T4, G8^C: ….

B1: G1^N: StreptagII-gpD-linker[N-extein]-Gp41.1^N-GGHHHHHH fusion protein (other)
chain: MASWSHPQFEKASKETFTHYQPQGNSDPAHTATAPGGLSAKAPAMTPLMLDTSSRKLVAWDGTTDGAAVGILAVAADQTSTTLTFYKSGTFRYEDVLWPEAASDETKKRTAFAGTAISIVGSTRSGYCLDLKTQVQTPQGMKEISNIQVGDLVLSNTGYNEVLNVFPKSKKKSYKITLEDGKEIICSEEHLFPTQTGEMNISGGLKEGMCLYVKEGGHHHHHH
Regarding B1, in [1], the “trans-splicing first order rate constant k, 25 °C” value was found to be 0.057 s⁻¹ and the “trans-splicing t1/2, 25 °C” value amounted to 0.2 min. For the same molecule, in test [2], the “splice product formation at 5 minutes, 25 °C” value (“splice product formation” for short) is ~90%; the “trans-splicing activity in 4 M urea after 1 hour, relative to optimized conditions” value is ~50%; the “trans-splicing activity, fold faster than Npu DnaE, 12 °C” value is 6 fold; the “trans-splicing activity, fold faster than Npu DnaE, 25 °C” value is 15 fold. For the same molecule, in test [2], the “trans-splicing activity, fold faster than Npu DnaE, 37 °C” value turned out to be 10 fold and the “trans-splicing speed, fold faster than Npu DnaE, 25 °C” value stood at 31 fold.

B2: G1^N(C1A): StreptagII-gpD-linker[N-extein]-Gp41.1^N(C1A)-GGHHHHHH fusion protein (other)
chain: B1 chain with C128A
On to B2, for which, in test [3], the “C-terminal cleavage k, 25 °C” value was determined as 0.000595 s⁻¹ and the “C-terminal cleavage t1/2, 25 °C” value came out at 19.4 min.

B3: I1^N: StreptagII-gpD-linker[N-extein]-IMPDH1^N-GGHHHHHH fusion protein (other)
chain: MASWSHPQFEKASKETFTHYQPQGNSDPAHTATAPGGLSAKAPAMTPLMLDTSSRKLVAWDGTTDGAAVGILAVAADQTSTTLTFYKSGTFRYEDVLWPEAASDETKKRTAFAGTAISIVGSGIGGGCFVPGTLVNTENGLKKIEEIKVGDKVFSHTGKLQEVVDTLIFDRDEEIISINGIDCTKNHEFYVIDKENANRVNEDNIHLFARWVHAEELDMKKHLLIELEGGHHHHHH
As to B3, in test [4], the “trans-splicing first order rate constant k, 25 °C” value came out at 0.02 s⁻¹ and the “trans-splicing t1/2, 25 °C” value was found to be 0.567 min. In [5], the “splice product formation” value is ~90% and the “trans-splicing speed, fold faster than Npu DnaE, 25 °C” value turned out to be 7 fold.

B4: I1^N(C1A): StreptagII-gpD-linker[N-extein]-IMPDH1^N(C1A)-GGHHHHHH fusion protein (other)
chain: B3 chain with C128A
For the molecule B4, in [6], the “C-terminal cleavage k, 25 °C” value was found to be 0.000365 s⁻¹ and the “C-terminal cleavage t1/2, 25 °C” value worked out at 31.6 min.

B5: N1^N: StreptagII-gpD-linker[N-extein]-NrdJ1^N-GGHHHHHH fusion protein (other)
chain: MASWSHPQFEKASKETFTHYQPQGNSDPAHTATAPGGLSAKAPAMTPLMLDTSSRKLVAWDGTTDGAAVGILAVAADQTSTTLTFYKSGTFRYEDVLWPEAASDETKKRTAFAGTAISIVGSGTNPCCLVGSSEIITRNYGKTTIKEVVEIFDNDKNIQVLAFNTHTDNIEWAPIKAAQLTRPNAELVELEINTLHGVKTIRCTPDHPVYTKNRDYVRADELTDDDELVVAIGGHHHHHH
As for B5, in test [7], the “trans-splicing first order rate constant k, 25 °C” value is 0.062 s⁻¹ and the “trans-splicing t1/2, 25 °C” value came to 0.333 min. Besides, in test [8], the “splice product formation” value is ~90% and the “trans-splicing speed, fold faster than Npu DnaE, 25 °C” value amounted to 9 fold.

B6: N1^N(C1A): StreptagII-gpD-linker[N-extein]-NrdJ1^N(C1A)-GGHHHHHH fusion protein (other)
chain: B5 chain with C128A
For B6, in test [9], the “C-terminal cleavage k, 25 °C” value is 0.00027 s⁻¹ and the “C-terminal cleavage t1/2, 25 °C” value turned out to be 43 min.

B7: G8^N: StreptagII-gpD-linker[N-extein]-Gp41.8^N-GGHHHHHH fusion protein (other)
chain: MASWSHPQFEKASKETFTHYQPQGNSDPAHTATAPGGLSAKAPAMTPLMLDTSSRKLVAWDGTTDGAAVGILAVAADQTSTTLTFYKSGTFRYEDVLWPEAASDETKKRTAFAGTAISIVGSSQLNRCLSLDTMVVTNGKAIEIRDVKVGDWLESECGPVQVTEVLPIIKQPVFEIVLKSGKKIRVSANHKFPTKDGLKTINSGLKVGDFLRSRAKGGHHHHHH
With B7, in [10], the “trans-splicing first order rate constant k, 25 °C” value turned out to be 0.017 s⁻¹ and the “trans-splicing t1/2, 25 °C” value was found to be 0.667 min. In test [11], the “splice product formation” value is ~90% and the “trans-splicing speed, fold faster than Npu DnaE, 25 °C” value is 6 fold.

B8: G8^N(C1A): StreptagII-gpD-linker[N-extein]-Gp41.8^N(C1A)-GGHHHHHH fusion protein (other)
chain: B7 chain with C128A
Consider B8, for which, in [12], the “C-terminal cleavage k, 25 °C” value came out at 9.5e-05 s⁻¹ and the “C-terminal cleavage t1/2, 25 °C” value was determined as 122 min.
